{"source": "patent US20230184787", "proteins": {"B1": {"name": "human neutrophil elastase (protein)", "chain": "IVGGRRARPHAWPFMVSLQLRGGHFCGATLIAPNFVMSAAHCVANVNVRAVRVVLGAHNLSRREPTRQVFAVQRIFENGYDPVNLLNDIVILQLNGSATINANVQVAQLPAQGRRLGNGVQCLAMGWGLLGRNRGIASVLQELNVTVVTSLCRRSNVCTLVRGRQAGVCFGDSGSPLVCNGLIHGIASFVRGGCASGLYPDAFAPVAQFVNWIDSIIQ"}}, "biological_target": "T1, full-length human calprotectin (heterodimer of S100A9 and S100A8), P06702", "T1 chain 1": "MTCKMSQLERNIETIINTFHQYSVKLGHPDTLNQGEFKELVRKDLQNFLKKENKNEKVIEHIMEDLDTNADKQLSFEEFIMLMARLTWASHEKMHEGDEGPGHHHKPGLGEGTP", "T1 chain 2": "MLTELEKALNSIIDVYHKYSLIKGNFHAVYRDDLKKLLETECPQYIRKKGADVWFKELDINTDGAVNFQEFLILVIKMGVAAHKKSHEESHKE"}
{"protein": "B1", "values": [{"measurement": "calprotectin fragments identified by non-targeted mass spectrometry after in vitro cleavage", "result": "several neo-epitope containing calprotectin fragments were generated by HNE, from both the S100A9 and S100A8 proteins"}]}
